# B1: BAG family molecular chaperone regulator 1 (Homo sapiens), Q99933 (parent)
# chain: MAQRGGARRPRGDRERLGSRLRALRPGREPRQSEPPAQRGPPPSGRPPARSTASGHDRPTRGAAAGARRPRMKKKTRRRSTRSEELTRSEELTLSEEATWSEEATQSEEATQGEEMNRSQEVTRDEESTRSEEVTREEMAAAGLTVTVTHSNEKHDLHVTSQQGSSEPVVQDLAQVVEEVIGVPQSFQKLIFKGKSLKEMETPLSALGIQDGCRVMLIGKKNSPQEEVELKKLKHLEKSVEKIADQLEELNKELTGIQQGFLPKDLQAEALCKLDRRVKATIEQFMKILEEIDTLILPENFKDSRLKRKGLVKKVQAFLAECDTVEQNICQETERLQSTNFALAE
# Variants of: B1
# Conditions: with hsp7c_human HSPA8, P11142
# Chain of hsp7c_human HSPA8, P11142 (P11142 whole entry, looked up): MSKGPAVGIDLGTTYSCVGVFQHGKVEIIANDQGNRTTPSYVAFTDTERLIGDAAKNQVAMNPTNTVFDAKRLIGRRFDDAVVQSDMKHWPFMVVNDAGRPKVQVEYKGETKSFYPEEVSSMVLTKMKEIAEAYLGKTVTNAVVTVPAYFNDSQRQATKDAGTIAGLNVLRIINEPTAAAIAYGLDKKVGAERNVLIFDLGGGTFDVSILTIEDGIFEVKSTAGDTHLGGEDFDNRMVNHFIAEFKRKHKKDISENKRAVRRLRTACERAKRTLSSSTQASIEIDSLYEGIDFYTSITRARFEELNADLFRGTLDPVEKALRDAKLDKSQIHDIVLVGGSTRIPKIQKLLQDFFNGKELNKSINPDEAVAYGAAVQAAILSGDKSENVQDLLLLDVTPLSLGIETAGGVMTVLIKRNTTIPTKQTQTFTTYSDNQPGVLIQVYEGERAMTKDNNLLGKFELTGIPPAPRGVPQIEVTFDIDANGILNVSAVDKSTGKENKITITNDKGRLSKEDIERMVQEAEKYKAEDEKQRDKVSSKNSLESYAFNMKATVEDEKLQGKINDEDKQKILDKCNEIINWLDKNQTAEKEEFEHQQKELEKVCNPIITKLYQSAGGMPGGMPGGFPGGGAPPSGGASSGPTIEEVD
row,Variant,effect of a mutation on the interaction
1,R308A,decreasing interaction

# Variants of: B1
# Conditions: with hsp7c_human HSPA8, P11142
# Remark: another data set of the same source
row,Variant,effect of a mutation on the interaction
1,K309A,decreasing interaction
